What all share (assay): BLI (Octet384RED)
The target of one assay is T1, hRim.
T1 chimeric human/tetraodon Sortilin extracellular region, BAP tag: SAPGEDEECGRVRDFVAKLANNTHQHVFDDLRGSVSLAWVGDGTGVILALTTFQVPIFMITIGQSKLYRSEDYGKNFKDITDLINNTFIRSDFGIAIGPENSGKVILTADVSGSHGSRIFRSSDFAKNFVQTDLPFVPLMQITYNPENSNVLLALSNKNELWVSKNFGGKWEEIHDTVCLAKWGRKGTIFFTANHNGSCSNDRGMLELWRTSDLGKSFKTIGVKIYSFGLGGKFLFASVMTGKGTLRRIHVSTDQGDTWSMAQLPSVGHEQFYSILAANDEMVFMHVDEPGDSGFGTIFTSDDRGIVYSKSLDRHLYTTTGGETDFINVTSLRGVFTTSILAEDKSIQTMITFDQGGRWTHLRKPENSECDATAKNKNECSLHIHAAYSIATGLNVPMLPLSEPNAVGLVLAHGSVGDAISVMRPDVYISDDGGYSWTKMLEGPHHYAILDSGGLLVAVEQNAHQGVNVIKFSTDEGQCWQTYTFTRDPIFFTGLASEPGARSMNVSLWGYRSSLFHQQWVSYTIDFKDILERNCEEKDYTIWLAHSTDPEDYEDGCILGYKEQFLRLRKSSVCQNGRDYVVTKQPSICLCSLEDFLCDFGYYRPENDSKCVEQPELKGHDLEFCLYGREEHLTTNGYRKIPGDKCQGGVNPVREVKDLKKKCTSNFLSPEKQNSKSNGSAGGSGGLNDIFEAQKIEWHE

A further assay deals with T2, hBack.
T2 chimeric human/tetraodon Sortilin extracellular region, BAP tag: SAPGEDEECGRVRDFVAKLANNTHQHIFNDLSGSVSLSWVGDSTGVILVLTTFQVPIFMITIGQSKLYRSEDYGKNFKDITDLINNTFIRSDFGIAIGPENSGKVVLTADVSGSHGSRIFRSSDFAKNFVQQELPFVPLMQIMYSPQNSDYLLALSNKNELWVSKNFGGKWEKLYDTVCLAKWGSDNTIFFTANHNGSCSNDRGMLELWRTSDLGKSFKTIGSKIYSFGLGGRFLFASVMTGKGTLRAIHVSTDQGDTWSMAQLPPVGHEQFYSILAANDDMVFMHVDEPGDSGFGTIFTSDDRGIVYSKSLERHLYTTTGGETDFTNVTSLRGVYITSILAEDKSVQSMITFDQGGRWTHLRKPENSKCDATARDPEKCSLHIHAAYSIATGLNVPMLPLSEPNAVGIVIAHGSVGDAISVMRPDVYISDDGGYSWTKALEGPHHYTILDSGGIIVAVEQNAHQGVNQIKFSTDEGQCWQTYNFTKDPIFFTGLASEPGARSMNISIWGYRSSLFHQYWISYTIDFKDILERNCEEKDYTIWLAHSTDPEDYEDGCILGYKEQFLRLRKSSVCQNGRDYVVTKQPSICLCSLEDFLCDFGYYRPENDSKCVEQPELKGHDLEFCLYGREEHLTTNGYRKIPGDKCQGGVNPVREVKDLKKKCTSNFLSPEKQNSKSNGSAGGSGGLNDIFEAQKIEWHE

The target of assay [1] is T3, Sortilin SORTECDBAP_hB12390 (human/tetraodon chimera).
T3 construct: Shuffle construct: chimeric human/tetraodon Sortilin ECD with BAP tag
T3 chain: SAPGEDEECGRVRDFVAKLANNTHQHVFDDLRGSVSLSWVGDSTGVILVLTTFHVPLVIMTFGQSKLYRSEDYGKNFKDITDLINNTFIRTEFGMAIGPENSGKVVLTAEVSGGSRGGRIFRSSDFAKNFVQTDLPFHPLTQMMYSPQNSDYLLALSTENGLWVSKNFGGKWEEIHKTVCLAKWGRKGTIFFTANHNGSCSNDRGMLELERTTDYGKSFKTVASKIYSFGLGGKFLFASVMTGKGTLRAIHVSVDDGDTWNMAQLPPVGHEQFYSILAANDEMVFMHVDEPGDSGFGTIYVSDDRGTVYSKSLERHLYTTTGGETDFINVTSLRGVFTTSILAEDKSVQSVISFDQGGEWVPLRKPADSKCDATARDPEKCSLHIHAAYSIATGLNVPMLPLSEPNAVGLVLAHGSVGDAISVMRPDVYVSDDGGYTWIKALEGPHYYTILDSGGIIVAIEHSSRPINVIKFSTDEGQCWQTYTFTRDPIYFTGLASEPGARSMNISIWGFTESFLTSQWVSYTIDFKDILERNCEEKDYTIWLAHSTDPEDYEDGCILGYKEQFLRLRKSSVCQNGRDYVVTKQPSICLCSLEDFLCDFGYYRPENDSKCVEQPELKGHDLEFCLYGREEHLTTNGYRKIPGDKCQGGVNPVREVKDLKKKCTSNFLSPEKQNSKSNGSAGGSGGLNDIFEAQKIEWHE

The target of assay [2] is T4, Sortilin SORTECDBAP_hB45678 (human/tetraodon chimera).
T4 construct: Shuffle construct: chimeric human/tetraodon Sortilin ECD with BAP tag
T4 chain: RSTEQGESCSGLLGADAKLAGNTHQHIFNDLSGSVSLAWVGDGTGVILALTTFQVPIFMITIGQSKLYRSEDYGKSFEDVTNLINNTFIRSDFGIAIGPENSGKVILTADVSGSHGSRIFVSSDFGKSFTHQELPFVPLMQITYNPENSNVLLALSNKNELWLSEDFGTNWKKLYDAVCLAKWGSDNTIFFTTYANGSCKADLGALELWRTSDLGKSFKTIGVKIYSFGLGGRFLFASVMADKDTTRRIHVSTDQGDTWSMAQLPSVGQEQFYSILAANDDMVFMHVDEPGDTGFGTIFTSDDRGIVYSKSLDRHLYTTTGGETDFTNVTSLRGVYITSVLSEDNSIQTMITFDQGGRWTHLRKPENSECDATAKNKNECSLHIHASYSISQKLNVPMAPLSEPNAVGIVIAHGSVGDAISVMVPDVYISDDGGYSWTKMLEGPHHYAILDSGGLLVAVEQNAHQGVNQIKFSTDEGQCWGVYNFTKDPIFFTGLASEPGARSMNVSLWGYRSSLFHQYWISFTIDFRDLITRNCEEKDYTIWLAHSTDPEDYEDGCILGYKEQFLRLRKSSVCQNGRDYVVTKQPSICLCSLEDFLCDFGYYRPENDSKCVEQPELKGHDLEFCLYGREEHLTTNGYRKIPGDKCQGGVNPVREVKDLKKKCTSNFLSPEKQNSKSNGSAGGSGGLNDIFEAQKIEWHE

B1: Antibody 6003-799 (antibody, human IgG1, V domains shown)
VH: QVQLVESGGGVVQPGRSLRLSCAASGFTFSSYGMHWVRQAPGKGLEWVTVISYDGSNKYYADSVKGRFTISRDNSKNTLYLQMNSLRAEDTAVYYCAKLTGDAFDIWGQGTMVTVSS
VL: EIVLTQSPATLSLSPGERATLSCRASQSVSSYLVWYQQKPGQAPRLLIYHASNRATGIPARFSGSGSGTDFTLTISSLEPEDFAVYYCQQRSNWPRITFGQGTRLEIK
B1: the EC50 in the assay with hRim was 5.02 ng/mL; with hBack, 3.2 ng/mL; in assay [1] it was 3.36 ng/mL; in assay [2] it was 4.16 ng/mL.

B2: Antibody 6003-822 (antibody, human IgG1, V domains shown)
VH: EVQLLESGGGLVQPGESLTLSCAASGFTLSSYAMSWVRQAPGKGLEWVSSISGRLGTTYYAASVKGRFTISRDNSKNTLYLQMNSLRAEDTAIYSCAKAPSDAFDIWGQGTMVTVSS
VL: EIVLTQSPATLSLSPGERATLSCRASQSVSSYLAWYQQKPGQAPRLLIYDASNRATGIPARFSGSGSGTDFTLTISSLEPEDFAVYYCQQRSNWPIFTFGPGTKVDIK
In the case of B2, the EC50 amounted to 2.31 ng/mL in the assay with hRim, 2.59 ng/mL with hBack, 1.89 ng/mL in assay [1] and 2.08 ng/mL in assay [2].

B3: Antibody 6003-886 (antibody, human IgG1, V domains shown)
VH: QVQLVQSGAEVKKPGASVKVSCKASGYTFTKYGISWVRQAPGQGLEWMGWISAYNGNTNYAQKLQDRVTMTTDTFTSTAYMELRSLRSDDTAVYFCARDGPLTGDFTFYGMDVWGQGTTVTVSS
VL: EIVLTQSPATLSLSPGERATLSCRASQSVSSYLAWYQQKPGQAPRLLIYDASNRATGIPARFSGSGSGTDFTLTISSLEPEDFAVYYCQQRSNWPPFTFGPGTKVDIK
B3: the EC50 in the assay with hRim amounted to 4.42 ng/mL; with hBack, 2.72 ng/mL; in assay [1], 3.36 ng/mL; in assay [2], 3.45 ng/mL.

B4: IgG1-6003-910 (antibody, V domains shown)
VH: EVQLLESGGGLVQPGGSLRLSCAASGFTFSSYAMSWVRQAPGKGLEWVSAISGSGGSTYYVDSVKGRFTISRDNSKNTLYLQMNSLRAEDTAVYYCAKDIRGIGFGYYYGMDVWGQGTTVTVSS
VL: EIVLTQSPATLSLSPGERATLSCRASQSVSSYLVWYQQKPGQAPRLLIYDASNRATGIPARFSGSGSGTDFTLTISSLEPEDFAVYYCQQRSNWPPTFGQGTRLEIK
notes: also called Antibody 6003-910
In the case of B4, the EC50 is 2.59 ng/mL with hRim, 1.54 ng/mL with hBack, 1.84 ng/mL in assay [1] and 2.23 ng/mL in assay [2].

B5: IgG1-6003-972 (antibody, V domains shown)
VH: QVQLVESGGGVVQPGRSLRLSCAASGFTFSDYAMHWVRRAPGKGLEWVVVISYDGSNKYYADSVKGRFTISRDNSKNTLYLQMNSLRAEDTAVYYCARDPSGGWYFDLWGRGTLVTVSS
VL: EIVLTQSPATLSLSPGERATLSCRASQSVSSYLAWYQQKPGQAPRLLIYDASNRATGIPARFSGSGSGTDFTLTISSLEPEDFALYYCQQRSHWPRTFGQGTKVEIK
notes: also called Antibody 6003-972
Regarding B5, the EC50 with hRim is 3.08 ng/mL; with hBack, 1.49 ng/mL; in assay [1], 2.36 ng/mL; in assay [2] it was 2.57 ng/mL.

B6: Antibody 6003-900 (antibody, human IgG1, V domains shown)
VH: EVQLVESGGGLVKPGGSLRLSCAASGFTFSSYSMNWVRQAPGKGLEWVSSISSSSSYIYYADSVKGRFTISRDNAKNSLYLQMNSLRAEDTAVYYCARRGSGSYDAFDIWGQGTMVTVSS
VL: EIVLTQSPDFQSVTPKEKVTITCRASQSIGYSLHWYQQKPDQSPKLLIKYASQSFSGVPSRFSGSGSGTDFTLTINSLEAEDAAAYYCHQSSSLPLTFGGGTKVEIK
notes: also called antibody 900; Sortilin human antibody 900
As for B6, the EC50 in the assay with hRim was 1.26 ng/mL; in the assay with hBack it was 1.16 ng/mL; in assay [1], 1.06 ng/mL; in assay [2] it was 1.19 ng/mL.
